Experimental data taken from patent US20170088624A1 (Janssen / Centocor, published 2017).

T1: Macaca fascicularis (cyno) CD40 (cCD40) on cells (Macaca fascicularis (cynomolgus), UniProt P25942 21-277 (human entry))
T1 construct: CD40 on cyno mature DCs
T1 chain: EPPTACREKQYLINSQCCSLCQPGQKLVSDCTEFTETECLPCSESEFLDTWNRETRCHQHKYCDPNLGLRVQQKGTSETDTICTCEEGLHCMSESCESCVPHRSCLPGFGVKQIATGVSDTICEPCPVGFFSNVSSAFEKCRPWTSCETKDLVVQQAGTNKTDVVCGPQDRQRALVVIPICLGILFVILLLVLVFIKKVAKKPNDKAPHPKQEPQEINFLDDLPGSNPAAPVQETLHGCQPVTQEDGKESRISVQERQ

T2: cyno CD40 (SPR analyte) (Macaca fascicularis (cynomolgus), UniProt P25942 21-193 (human entry), limits assumed)
T2 construct: also called cCD40-ECD
T2 chain: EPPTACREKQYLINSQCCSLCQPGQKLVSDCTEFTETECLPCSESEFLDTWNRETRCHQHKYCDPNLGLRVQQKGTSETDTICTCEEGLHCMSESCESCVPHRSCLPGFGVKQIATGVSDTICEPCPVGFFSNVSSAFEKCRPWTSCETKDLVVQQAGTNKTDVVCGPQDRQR


Legend:
[1] = biological target: T3, Full length human CD40 (huCD40) on cells (human, UniProt P25942 21-277); assay: cell-based or functional assay
[2] = biological target: T3, Full length human CD40 (huCD40) on cells; assay: cell-based or functional assay; remark: listed apart in the source
[3] = biological target: T3, Full length human CD40 (huCD40) on cells; assay: flow cytometry, Raji cells
[4] = biological target: T1, Macaca fascicularis (cyno) CD40 (cCD40) …; assay: flow cytometry, cyno mature DCs
Method: (§1) Human monocytes were isolated from either frozen/fresh PBMC using CD14 negative isolation kit per manufacturer's protocol (MACS Miltenyi). Cyno monocytes were isolated from fresh PBMC using CD14 positive isolation kit per manufacturer's protocol (MACS Miltenyi). To generate DCs, monocytes were cultured for 5 days in complete media RPMI (Invitrogen) in the presence of 100 ng/ml human GM-CSF and human IL-4 (Peprotech) and media was replenished every 2 days. On day 5, DCs were stimulated with 100 ng/ml LPS (Sigma) for 24 hours. Cells were then stained with each of the tested CD40 antibody at different concentration in flow cytometry buffer (PBS+1% FBS; BD Bioscience) in 100 μl volume for 30 minutes on ice followed with two washes with flow buffer. Cells were then stained for additional 30 minutes on ice with APC-conjugated anti human IgG (Jackson ImmunoResearch) at the recommended dilution 1:100 and washed twice with flow buffer. Cells were analyzed for percent positive and Mean Fluorescence Intensity (MFI) to determine the antibody binding using Fortessa (BD Bioscience).
(§2) The experiments were conducted using assays described above. 20 antibodies were characterized further based on their binding to human DCs, cyno DCs, Raji cells and HEK-Blue™ CD40L cells.

[5] = biological target: T3, Full length human CD40 (huCD40) on cells; assay: flow cytometry, human mature DCs
Method: as §1, §2

[6] = biological target: T3, Full length human CD40 (huCD40) on cells; assay: flow cytometry, HEK-Blue CD40L cells
[7] = biological target: T4, human CD40 (SPR analyte) (human, UniProt P25942 21-193); assay: SPR ProteOn XPR36, mAb captured by anti-human IgG Fc, CD40 as analyte, 25 C
T4 construct: also called huCD40-ECD
Method: (§3) Affinity measurements were performed using Surface Plasmon Resonance (SPR) using a ProteOn XPR36 system (BioRad). […] Approximately 5000 RU (response units) of mAbs were immobilized. The kinetic experiments were performed at 25° C. in running buffer (DPBS+0.01% P20+100 μg/ml BSA). To perform kinetic experiments, 200 RU of mAbs were captured followed by injections of analytes (human or cyno CD40) at 5 concentrations (in a 4-fold serial dilution). The association phase was monitored for 3 minutes at 50 μL/min, then followed by 15 minutes of buffer flow (dissociation phase). The chip surface was regenerated with two 18 second pulses of 100 mM H₃PO₄ (Sigma, Cat#7961) at 100 μL/min.
(§4) The collected data were processed using ProteOn Manager software. First, the data was corrected for background using inter-spots. Then, double reference subtraction of the data was performed by using the buffer injection for analyte injections. The kinetic analysis of the data was performed using a Langmuir 1:1 binding model. The result for each mAb was reported in the format of Ka (On-rate), Kd (Off-rate) and KD (equilibrium dissociation constant).
(§5) The parameters reported in this table were obtained from a 1:1 Langmuir binding model for all samples. Affinity, KD=kd/ka.

[8] = biological target: T2, cyno CD40 (SPR analyte); assay: SPR ProteOn XPR36, mAb captured, cyno CD40 as analyte, 25 C; did not fit well to 1:1 model
Method: as §3, §4, §5

[9] = biological target: T2, cyno CD40 (SPR analyte); assay: SPR ProteOn XPR36, mAb captured by anti-human IgG Fc, cyno CD40 as analyte, 25 C
Method: as §3, §4

Binder	B cells EC50, CD23 surface expression, with cross-linker [1] [ng/mL]	B cells EC50, CD80 surface expression, with cross-linker [1] [ng/mL]	B cells EC50, CD83 surface expression, with cross-linker [1] [ng/mL]	B cells EC50, CD86 surface expression, with cross-linker [1] [ng/mL]	B cells EC50, HLA-DR surface expression, with cross-linker [1] [ng/mL]	DC EC50, CD80 surface expression, with cross-linker [2] [ng/mL]	DC EC50, CD83 surface expression, with cross-linker [2] [ng/mL]	DC EC50, CD86 surface expression, with cross-linker [2] [ng/mL]	DC EC50, HLA-DR surface expression, with cross-linker [2] [ng/mL]	EC50 [3] [ng/mL]	EC50 [4] [ng/mL]	EC50 [5] [ng/mL]	EC50 [6] [ng/mL]	Kd [7] [nM]	koff [7] [s⁻¹]	kon [7] [M⁻¹ s⁻¹]	Kd [9] [nM]	koff [9] [s⁻¹]	kon [9] [M⁻¹ s⁻¹]	also measured
C40M63 (antibody, human IgG1, kappa, V domains shown, Full-length IgG1/kappa; from phage display) VH: QVQLVQSGAEVKKPGSSVKVSCKASGGTFSSYAISWVRQAPGQGLEWMGGIIPIFGTANYAQKFQGRVTITADESTSTAYMELSSLRSEDTAVYYCARVGHPAWWRDSLDYWGQGTLVTVSS VL: not shown	6.94	0.0167	0.581	1.26	0.00966	70.5	0.962	258	154	39.6	30.9	99.6	84.9	1.21	0.000641	528000				Kd [8]: 0.412 nM; koff [8]: 0.000307 s⁻¹; kon [8]: 746000 M⁻¹ s⁻¹
C40M66 (antibody, human IgG1, kappa, V domains shown, Full-length IgG1/kappa; from phage display) VH: QVQLVQSGAEVKKPGSSVKVSCKASGGTFSSYAISWVRQAPGQGLEWMGGIIPIFGTANYAQKFQGRVTITADESTSTAYMELSSLRSEDTAVYYCARVRYSAWYRDSLDYWGQGTLVTVSS VL: not shown	41.4	5.11	1.82	2.46	1.08	158	175	423	39.4	73	48.3	202	169	3.05	0.00116	378000	1.64	0.000577	352000	
C40M67 (antibody, human IgG1, kappa, V domains shown, Full-length IgG1/kappa; from phage display) VH: EVQLLESGGGLVQPGGSLRLSCAASGFTFSDYAMNWVRQAPGKGLEWVSGIKSGGSSKYYADSVKGRFTISRDNSKNTLYLQMNSLRAEDTAVYYCAKHVDFYRALDYWGQGTLVTVSS VL: EIVLTQSPGTLSLSPGERATLSCRASQSVKNSSLAWYQQKPGQAPRLLIYTASSRATGIPDRFSGSGSGTDFTLTISRLEPEDFAVYYCQQSSAPPWTFGQGTKVEIKR	4.17	3.32	1.46	2.26	0.792	49.9	127	202	50.7	247	327	766	550	1.91	0.00031	163000	1.85	0.000341	184000	
C40M12 (antibody, human IgG1, lambda, V domains shown, Full-length IgG1/lambda; from OmniRat (OMT)) VH: EVQLVESGGGLVQPGGSLRLSCAASGFTFGSYAMSWVRQAPGKGLEWVSVISDSGGRTYYADSVKGRFTISRDYSKNTLYLQMNSLRAEDTAVYYCAKEGGDYYYYGMDVWGQGTTVTVSS VL: SYELTQPPSVSVSPGQTASIICSGDKLGDKYVCWYQQKPGQSPVVVIYHDNKRPSGIPERFSGSNSGNTATLTISGTQAMDEADYYCQVWDSSTVVFGGGTKLTVLG	125000	6.23	2.84	2.28	4.27	0.00393	332	502	301	29.9	47.4	298	112	0.136	0.000176	1.3e+06	0.243	0.000441	1.81e+06	
C40M17 (antibody, human IgG1, lambda, V domains shown, Full-length IgG1/lambda; from OmniRat (OMT)) VH: EVQLVESGGGLVQPGGSLRLSCAASGFTFSSYAMSWVRQAPGRGLEWVSTINNSGGGTYYADSVKGRFTISRDNSKNTLYLHMNSLRAEDTAVYYCAKEGGKYYYYAMDVWGQGTTVTVSS VL: not shown	1.95	0.879	0.838	4.57	1.57	36	306	33		73.9	53.7	127	75.1	0.0294	8.06e-05	2.74e+06	0.0368	0.000157	4.27e+06	
C40M59 (antibody, human IgG1, kappa, V domains shown, Full-length IgG1/kappa; from phage display) VH: QVQLVQSGAEVKKPGSSVKVSCKASGGTFSSYWISWVRQAPGQGLEWMGYIIPISGTARYAQKFQGRVTITADESTSTAYMELSSLRSEDTAVYYCAREPGYSSGLSVDYFDYWGQGTLVTVSS VL: not shown	1240	10.6	10.8	15.4	4.84	0.342	276	9.79	53.6	125	74	826	354	9	0.00106	118000	6.92	0.000995	144000	
